The results in this text go back to publication PMC2275150.

The target of this data set is T1, Cdc13-DBD (Saccharomyces cerevisiae, UniProt P32797 497-694).
T1 sequence: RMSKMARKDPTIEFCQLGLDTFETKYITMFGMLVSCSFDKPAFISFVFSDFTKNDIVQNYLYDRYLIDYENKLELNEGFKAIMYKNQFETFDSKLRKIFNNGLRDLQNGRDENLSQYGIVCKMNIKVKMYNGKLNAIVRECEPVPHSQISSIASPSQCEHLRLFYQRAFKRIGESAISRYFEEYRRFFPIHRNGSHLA
The experiment in a line: NMR.

GTGTGGGTGTG (ssDNA) [Tel11]: the binding result is recorded as “binds”.
